The target of this assay is T1, 150 kDa C-terminal fragment of wild-type GAS57 (Streptococcus pyogenes (M1 SF370)).
T1 construct: also called 150 kDa fragment; 150.5 kDa fragment
T1 chain: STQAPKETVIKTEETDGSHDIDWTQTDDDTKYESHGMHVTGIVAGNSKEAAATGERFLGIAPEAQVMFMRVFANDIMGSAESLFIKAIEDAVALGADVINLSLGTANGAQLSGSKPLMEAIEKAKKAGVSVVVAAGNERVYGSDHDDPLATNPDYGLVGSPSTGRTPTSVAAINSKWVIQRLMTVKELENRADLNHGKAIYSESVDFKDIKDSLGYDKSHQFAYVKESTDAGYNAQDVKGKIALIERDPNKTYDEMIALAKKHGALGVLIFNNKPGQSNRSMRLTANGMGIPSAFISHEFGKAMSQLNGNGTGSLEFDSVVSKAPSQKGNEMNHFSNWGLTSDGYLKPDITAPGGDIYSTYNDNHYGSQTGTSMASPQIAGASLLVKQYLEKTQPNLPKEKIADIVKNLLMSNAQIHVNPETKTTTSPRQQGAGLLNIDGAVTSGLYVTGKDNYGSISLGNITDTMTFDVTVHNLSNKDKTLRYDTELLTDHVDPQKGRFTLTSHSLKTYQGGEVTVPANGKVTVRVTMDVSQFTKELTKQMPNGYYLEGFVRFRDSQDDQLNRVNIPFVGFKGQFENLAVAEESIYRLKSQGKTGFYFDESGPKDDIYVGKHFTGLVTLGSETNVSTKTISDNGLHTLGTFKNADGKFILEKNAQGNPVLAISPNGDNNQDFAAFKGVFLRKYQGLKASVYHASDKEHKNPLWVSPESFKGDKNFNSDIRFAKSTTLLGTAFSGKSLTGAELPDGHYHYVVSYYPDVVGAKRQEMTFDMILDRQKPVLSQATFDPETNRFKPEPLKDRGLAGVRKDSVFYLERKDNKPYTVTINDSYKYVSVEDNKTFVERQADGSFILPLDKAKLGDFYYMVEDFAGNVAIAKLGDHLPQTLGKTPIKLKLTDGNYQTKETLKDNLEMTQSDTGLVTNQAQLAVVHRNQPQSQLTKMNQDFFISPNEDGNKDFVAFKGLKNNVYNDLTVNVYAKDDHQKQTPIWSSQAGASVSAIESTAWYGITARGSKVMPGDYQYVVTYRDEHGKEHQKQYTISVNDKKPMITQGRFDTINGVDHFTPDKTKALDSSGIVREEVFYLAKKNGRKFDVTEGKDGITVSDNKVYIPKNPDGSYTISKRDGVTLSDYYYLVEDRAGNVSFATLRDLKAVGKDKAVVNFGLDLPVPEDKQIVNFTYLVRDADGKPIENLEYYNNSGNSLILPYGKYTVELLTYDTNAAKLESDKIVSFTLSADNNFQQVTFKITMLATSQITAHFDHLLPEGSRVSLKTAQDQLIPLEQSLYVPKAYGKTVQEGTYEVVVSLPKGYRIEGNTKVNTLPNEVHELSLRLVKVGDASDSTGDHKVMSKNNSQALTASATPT
Nature of the assay: co-purification on Ni-chelating affinity column and gel filtration; SDS-PAGE. For orientation: SEC sorts molecules by how far they enter the pores of the column.

B1: 23 kDa N-terminal fragment of wild-type GAS57 (other)
chain: ADELSTMSEPTITNHAQQQAQHLTNTELSSAESKSQDTSQITLKTNREKEQSQDLVSEPTTTELADTDAASMANTGSDATQKSASLPPVNTDVHDWVKTKGAWDKGYKGQGKVVAVIDTGIDPAHQSMRISDVSTAKVKSKEDMLARQKAAGINYGSWINDKVVFAHNYVENSDNIKENQFEDFDEDWENFEFDAEAEPKAIKKHKIYRPQ
notes: also called 23 kDa fragment; 23.4 kDa fragment
As for B1, the binding result is reported as “binds”.

The record behind these values is patent US20130202609A1 (Novartis, published 2013).
